Reference: paper PMC7065273 (Molecular cell, 2019)

Target: His6-FLAG-tagged U2AF2 (amino acids 367-475), purified from E. coli (UniProt P26368 367-475)
Test: co-IP

Chain of His6-FLAG-tagged U2AF2 (amino acids 367-475), purified from E. coli (P26368 367-475): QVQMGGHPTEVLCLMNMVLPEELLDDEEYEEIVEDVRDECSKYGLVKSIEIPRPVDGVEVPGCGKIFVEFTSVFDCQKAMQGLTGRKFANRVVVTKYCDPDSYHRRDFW

Does APAAPGKPASAATVKRKRKSRWGPEEDKVELPPAEL (domain or fragment, UniProt Q8IWZ8 366-401, looked up) [GST-tagged SUGP1 (amino acids 366-401), purified from E. coli] bind?
Result: binds
